Reference: US8273855 (JIANGSU NOVAVAC BIO TEC, dated 2012)

How the values were obtained:
Notch2 on OLN-93 cells = target: T1, Notch2 on OLN-93 cells (rat, UniProt Q9QW30 26-2471); experiment: OLN-93 cell adhesion to F3-Fc substrate with antibody blockade
T1 construct: whole, on cells; also called OLN cells
Experimental: This was carried out as previously described (Xiao et al, 1996). Briefly, 35 mm tissue culture petri dishes (Becton Dickinson) were coated with methanol solubilized nitrocellulose (Lagenaur and Lemon, 1987) and air-dried under a sterile hood.

[1] = target: Notch on primary rat oligodendrocytes and oligodendrocyte precursor cells (rat, UniProt Q07008 19-2531); experiment: cell-based or functional assay
[2] = target: myc-tagged full-length mouse Notch1 on transfected OLN cells (mouse, UniProt Q01705 19-2531); experiment: cell-based or functional assay
[3] = target: T2, Caspr (native, adult rat brain membrane extracts) (rat, UniProt P97846 21-1381); experiment: co-immunoprecipitation from adult rat brain membrane extracts, Western blot
T2 construct: also called Paranodin; contactin-associated protein
T2 sequence (looked up): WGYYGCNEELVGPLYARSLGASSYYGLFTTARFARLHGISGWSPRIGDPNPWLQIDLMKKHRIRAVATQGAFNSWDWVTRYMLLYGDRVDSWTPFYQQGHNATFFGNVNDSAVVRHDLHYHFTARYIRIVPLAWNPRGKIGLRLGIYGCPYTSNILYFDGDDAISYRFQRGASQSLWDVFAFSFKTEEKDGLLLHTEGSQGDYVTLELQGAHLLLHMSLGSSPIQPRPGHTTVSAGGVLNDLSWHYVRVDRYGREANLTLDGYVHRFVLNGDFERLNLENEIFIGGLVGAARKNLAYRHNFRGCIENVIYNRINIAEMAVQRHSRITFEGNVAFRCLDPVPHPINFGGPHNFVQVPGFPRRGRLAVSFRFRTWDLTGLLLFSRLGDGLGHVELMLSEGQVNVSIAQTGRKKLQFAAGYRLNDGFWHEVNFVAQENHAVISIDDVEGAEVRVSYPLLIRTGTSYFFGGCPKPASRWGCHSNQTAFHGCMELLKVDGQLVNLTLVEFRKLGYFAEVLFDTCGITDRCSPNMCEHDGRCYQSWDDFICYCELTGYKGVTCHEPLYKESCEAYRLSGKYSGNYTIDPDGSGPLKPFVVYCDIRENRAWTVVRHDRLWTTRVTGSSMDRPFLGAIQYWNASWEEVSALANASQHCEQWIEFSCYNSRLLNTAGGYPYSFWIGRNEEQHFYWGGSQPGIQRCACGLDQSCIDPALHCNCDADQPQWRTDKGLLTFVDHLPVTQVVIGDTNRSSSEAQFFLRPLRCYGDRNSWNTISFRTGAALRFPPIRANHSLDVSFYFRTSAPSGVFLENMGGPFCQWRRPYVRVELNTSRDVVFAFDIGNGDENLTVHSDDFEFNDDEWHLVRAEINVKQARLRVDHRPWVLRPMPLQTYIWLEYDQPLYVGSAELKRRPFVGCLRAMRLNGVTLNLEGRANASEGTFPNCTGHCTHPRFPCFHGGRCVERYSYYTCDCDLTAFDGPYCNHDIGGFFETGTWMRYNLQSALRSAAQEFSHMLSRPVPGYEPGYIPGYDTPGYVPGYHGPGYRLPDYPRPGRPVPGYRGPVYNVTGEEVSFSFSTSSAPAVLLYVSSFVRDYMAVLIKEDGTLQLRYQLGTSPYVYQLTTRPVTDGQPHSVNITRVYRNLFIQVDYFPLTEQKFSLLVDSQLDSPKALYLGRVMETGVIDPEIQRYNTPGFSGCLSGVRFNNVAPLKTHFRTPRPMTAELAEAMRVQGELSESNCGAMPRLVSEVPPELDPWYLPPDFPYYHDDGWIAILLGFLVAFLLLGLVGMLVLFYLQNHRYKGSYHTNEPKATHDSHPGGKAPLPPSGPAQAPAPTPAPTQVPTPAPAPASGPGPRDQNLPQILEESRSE
Experimental: Briefly, brain tissue was homogenized in ice-cold homogenizing buffer (320 mM sucrose, 10 mM Tris-HCl pH7.4, 1 mM NaHCO_3 pH7.4, 1 mM MgCl_2) supplemented with 1% protease inhibitor cocktail (Amersham), and subsequently centrifuged at 5,000 g for 15 min. The supernatant was collected and spun at 60,000 g (Beckman ultracentrifuge) for 60 min at 4° C. Pellets were then dissolved in a lysis buffer (10 mM Tris-HCl pH9, 150 mM NaCl, 0.5% Triton X-100, 1% sodium deoxycholate (DOC), 0.5% SDS, 2 mM EDTA, and 1% protease inhibitor cocktail) for subsequent experiments.

[4] = target: T3, F3 on F3-transfected CHO cells (UniProt P12960 21-1001); experiment: cell adhesion assay, F3-CHO cells on coated substrate
T3 construct: whole, on cells; also called F3-CHO; F3-expressing CHO cells
T3 sequence (looked up): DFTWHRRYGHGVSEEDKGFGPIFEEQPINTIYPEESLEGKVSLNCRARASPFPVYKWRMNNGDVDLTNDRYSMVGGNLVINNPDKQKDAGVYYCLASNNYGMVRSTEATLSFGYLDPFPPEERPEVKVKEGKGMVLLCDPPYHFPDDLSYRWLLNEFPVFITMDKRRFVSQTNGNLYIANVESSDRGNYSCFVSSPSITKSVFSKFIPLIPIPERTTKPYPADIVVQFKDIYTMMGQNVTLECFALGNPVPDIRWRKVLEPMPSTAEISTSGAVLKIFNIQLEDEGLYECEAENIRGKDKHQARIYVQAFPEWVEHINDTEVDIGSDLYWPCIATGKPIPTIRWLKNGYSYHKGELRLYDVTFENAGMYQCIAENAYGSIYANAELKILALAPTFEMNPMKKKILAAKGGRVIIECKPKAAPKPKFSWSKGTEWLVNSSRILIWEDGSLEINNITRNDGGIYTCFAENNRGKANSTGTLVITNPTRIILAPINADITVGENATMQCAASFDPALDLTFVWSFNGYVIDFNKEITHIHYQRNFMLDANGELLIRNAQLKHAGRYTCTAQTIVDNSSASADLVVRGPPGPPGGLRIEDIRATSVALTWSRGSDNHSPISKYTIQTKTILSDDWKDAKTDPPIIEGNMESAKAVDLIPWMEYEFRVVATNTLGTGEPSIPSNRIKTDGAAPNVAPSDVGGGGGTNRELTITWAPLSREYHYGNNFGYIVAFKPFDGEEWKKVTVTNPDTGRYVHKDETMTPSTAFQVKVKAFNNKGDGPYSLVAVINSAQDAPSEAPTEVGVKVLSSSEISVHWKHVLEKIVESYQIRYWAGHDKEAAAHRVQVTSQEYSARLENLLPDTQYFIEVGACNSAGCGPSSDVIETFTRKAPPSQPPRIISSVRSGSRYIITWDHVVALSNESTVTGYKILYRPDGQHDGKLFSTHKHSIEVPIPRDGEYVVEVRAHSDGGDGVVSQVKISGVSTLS

Sequence of Notch on primary rat oligodendrocytes and oligodendrocyte precursor cells (Q07008 19-2531): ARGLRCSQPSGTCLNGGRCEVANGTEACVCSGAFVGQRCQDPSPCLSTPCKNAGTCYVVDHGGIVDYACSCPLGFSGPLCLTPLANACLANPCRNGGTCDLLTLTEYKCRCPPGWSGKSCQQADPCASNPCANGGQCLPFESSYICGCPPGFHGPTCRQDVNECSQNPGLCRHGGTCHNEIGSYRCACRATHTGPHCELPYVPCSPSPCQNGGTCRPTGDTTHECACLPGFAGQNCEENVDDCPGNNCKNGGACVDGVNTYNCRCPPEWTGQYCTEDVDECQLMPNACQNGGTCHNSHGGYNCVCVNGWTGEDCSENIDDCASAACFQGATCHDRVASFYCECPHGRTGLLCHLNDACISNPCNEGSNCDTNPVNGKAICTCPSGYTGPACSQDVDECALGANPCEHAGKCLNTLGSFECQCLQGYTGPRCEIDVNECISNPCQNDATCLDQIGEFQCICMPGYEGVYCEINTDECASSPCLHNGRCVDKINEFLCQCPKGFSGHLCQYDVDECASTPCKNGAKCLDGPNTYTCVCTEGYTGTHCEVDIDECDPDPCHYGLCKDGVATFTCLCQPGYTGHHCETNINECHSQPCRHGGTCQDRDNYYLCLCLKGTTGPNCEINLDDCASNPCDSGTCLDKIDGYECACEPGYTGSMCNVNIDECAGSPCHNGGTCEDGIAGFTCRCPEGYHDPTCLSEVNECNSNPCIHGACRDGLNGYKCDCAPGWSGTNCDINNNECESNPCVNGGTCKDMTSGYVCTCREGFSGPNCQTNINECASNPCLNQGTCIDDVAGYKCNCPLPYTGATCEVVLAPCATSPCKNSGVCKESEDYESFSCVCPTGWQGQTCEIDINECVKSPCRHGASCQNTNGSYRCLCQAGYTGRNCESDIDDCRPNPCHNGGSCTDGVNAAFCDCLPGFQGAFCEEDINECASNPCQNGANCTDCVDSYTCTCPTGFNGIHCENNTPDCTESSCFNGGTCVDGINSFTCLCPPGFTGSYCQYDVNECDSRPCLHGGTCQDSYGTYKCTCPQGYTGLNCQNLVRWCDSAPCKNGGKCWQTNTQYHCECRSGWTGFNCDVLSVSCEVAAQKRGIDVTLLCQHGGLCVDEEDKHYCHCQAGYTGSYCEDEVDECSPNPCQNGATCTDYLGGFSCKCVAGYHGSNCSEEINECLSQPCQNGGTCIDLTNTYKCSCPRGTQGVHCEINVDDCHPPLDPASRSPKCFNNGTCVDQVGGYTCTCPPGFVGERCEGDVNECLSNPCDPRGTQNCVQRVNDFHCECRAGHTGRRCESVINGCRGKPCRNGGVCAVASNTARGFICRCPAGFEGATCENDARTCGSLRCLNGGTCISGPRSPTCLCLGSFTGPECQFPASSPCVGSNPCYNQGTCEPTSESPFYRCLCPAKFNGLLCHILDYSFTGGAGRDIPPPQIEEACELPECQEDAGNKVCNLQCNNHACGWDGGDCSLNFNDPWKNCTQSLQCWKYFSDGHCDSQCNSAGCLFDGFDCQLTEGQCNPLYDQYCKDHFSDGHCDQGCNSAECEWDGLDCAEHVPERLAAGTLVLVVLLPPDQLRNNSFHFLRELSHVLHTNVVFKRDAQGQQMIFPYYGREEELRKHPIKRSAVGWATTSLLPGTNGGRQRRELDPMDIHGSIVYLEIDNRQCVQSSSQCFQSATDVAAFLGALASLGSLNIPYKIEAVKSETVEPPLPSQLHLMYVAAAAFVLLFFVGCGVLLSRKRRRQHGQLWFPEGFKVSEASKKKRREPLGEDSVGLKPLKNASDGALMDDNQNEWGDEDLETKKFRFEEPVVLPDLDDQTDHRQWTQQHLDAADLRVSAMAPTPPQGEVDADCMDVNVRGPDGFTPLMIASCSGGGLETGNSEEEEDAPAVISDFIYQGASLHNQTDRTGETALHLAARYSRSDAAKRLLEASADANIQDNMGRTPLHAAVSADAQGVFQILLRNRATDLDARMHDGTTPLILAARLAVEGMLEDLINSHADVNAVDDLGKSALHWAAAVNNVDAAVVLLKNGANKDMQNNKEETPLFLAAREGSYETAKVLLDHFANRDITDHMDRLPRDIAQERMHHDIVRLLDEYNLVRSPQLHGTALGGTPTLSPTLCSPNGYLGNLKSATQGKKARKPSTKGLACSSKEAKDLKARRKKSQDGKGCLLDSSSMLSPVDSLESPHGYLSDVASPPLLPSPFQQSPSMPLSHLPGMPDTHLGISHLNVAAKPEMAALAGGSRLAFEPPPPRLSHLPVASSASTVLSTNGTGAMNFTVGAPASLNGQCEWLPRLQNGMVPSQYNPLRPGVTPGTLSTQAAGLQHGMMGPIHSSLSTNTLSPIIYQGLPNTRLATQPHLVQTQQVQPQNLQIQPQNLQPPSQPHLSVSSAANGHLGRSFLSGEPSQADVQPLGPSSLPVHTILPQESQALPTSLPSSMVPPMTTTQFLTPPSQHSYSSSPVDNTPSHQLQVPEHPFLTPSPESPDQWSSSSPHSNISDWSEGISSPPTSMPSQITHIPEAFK
Sequence of myc-tagged full-length mouse Notch1 on transfected OLN cells (Q01705 19-2531): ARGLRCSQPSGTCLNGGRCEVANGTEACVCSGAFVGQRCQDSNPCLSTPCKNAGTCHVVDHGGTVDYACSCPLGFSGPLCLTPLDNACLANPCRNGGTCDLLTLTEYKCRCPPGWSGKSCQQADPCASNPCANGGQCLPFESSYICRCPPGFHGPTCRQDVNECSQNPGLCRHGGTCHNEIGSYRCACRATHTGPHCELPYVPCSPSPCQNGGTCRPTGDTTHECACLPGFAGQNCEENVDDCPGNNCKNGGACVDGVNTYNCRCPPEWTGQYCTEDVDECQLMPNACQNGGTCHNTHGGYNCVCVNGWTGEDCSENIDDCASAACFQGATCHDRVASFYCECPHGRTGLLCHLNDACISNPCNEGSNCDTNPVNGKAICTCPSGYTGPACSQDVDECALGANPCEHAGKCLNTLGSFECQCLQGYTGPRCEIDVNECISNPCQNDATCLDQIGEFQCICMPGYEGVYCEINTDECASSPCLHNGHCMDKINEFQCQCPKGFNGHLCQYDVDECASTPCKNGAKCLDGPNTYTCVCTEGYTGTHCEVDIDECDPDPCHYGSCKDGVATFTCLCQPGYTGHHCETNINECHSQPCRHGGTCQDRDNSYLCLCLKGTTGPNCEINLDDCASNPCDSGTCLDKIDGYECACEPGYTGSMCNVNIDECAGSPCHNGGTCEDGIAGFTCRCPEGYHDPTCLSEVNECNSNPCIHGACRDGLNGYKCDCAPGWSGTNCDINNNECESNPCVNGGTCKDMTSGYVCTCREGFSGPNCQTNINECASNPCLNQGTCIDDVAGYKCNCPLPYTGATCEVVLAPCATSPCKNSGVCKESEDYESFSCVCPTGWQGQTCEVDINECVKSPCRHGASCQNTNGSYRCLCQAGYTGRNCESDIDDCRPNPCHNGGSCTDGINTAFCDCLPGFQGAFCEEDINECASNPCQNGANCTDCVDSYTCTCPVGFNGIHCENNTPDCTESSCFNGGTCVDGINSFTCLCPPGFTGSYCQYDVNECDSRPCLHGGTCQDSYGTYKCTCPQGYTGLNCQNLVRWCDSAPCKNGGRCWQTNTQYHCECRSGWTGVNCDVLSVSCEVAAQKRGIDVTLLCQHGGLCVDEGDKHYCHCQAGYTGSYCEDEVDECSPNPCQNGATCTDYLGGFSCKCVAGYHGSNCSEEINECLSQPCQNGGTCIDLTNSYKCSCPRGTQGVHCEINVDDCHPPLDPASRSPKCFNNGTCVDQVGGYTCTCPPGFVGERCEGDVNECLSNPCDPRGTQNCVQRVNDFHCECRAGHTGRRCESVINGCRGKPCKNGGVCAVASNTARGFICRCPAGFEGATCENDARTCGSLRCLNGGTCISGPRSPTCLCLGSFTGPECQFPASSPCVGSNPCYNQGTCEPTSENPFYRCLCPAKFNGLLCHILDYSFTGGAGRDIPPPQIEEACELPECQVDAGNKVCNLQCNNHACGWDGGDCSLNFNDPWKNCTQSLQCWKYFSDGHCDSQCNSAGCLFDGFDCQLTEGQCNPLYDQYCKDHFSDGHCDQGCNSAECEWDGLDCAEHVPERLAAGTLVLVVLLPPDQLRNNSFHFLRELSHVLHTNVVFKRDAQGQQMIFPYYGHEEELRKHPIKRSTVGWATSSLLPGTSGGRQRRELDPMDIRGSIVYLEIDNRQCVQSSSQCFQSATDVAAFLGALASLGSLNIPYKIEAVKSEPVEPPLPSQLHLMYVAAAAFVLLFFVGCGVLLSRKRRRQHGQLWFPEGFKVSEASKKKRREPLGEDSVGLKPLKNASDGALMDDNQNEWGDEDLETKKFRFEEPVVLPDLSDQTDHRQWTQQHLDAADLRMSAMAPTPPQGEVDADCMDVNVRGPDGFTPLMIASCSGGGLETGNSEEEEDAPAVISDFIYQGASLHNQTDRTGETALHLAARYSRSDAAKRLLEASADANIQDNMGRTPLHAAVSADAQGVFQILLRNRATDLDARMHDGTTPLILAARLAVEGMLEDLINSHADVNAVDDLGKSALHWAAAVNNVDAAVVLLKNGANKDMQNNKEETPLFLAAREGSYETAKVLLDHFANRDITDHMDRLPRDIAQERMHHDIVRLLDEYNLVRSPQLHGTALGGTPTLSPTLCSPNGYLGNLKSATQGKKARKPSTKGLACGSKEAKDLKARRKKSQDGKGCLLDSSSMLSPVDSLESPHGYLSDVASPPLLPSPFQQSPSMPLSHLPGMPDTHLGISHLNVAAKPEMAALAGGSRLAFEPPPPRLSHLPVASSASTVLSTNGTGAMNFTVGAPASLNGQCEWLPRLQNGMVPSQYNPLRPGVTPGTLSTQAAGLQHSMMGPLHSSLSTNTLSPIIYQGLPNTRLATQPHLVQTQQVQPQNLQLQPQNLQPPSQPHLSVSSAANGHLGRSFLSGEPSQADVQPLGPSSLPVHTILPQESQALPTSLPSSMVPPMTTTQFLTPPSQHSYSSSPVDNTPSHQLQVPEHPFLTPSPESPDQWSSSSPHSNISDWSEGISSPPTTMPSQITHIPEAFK

B1: F3-Fc (Fc fusion, mouse, UniProt P12960 21-1001, looked up)
chain: T3 sequence (looked up)
notes: domain: F3 without the GPI-anchor; also called F3 substrate; soluble F3; not shown: human IgG Fc
binding result (Notch2 on OLN-93 cells): binds | MAG mRNA, real-time RT-PCR, primary oligodendrocytes on protein substrate against BSA [1]: ~8 fold | MAG transcripts, real-time PCR, primary OLs on F3 substrate against BSA [1]: ~16 fold | nuclear NICD staining intensity [2]: 2 fold

B2: NB-3 (native, rat brain) (ligand, UniProt P97528 20-999, looked up)
chain: ESRFTRPIFIQEPQDVIFPLDLSRSEIILSCTASGYPSPHYRWKQNGTDIDFSMTYHYRLDGGSLAISSPRTDQDIGIYQCLATNPVGTILSRKAKLQFAYIEDFETKSRSTVSVREGQGVVLLCGPPPHFGELSYDWTFNDNPLYVQEDKRRFVSQNTGNLYIAKVEPSDVGNYTCFVTNKEAHRSVQGPPTPLVQRTDGVMGEYEPKIEVRFPETIQAAKDSSVKLECFALGNPVPDISWRRLDGSPMPGKVKYSNSQATLEIPKFQQEDEGFYECVAGNLRGRNLAKGQLIFYAPPEWEQKIQNTYLSIYDSLFWECKASGNPNPSYTWLKNGERLNTEERIQTENGTLIITMLNVSDSGIYQCAAENKYQTIYANAELRVLASAPDFSKNPIKKISVVQVGGDISIECKPNAFPKASISWKRGTENLKQSKRVFFLEDGSLKICNVTRSDAGSYTCVATNQFGNGKSSGSLIVKERTVITVPPSKMDVTVGESIVLPCQVSHDPTMEVLFVWYFNGDVIDLKKGVAHFERIGGESVGDLMIRNIQLGHSGKYLCTVQTTLERLSAVADIIVRGPPGPPEDVKVEHISSTTSQLSWRPGPDNNSPIQIFTIQTRTPFSVGWQAVATVPEILNGQTYNATVIGLSPWVEYEFRVVAGNNIGIGEPSKPSELLRTKASIPNVAPVNINGGGGSRSELVITWEPIPEELQNGEGFGYIIMFRPVGSTTWMKEKVALVESSKFIYRNESIMPLSPFEVKVGVYNNEGEGSLSTVSIVYSGEDEPRLAPRGTSVQSFSASDMEVSWNAIAWNRNTGRVLGYEVLYWTDNSKESMIGKIRVSGNVTTKNITGLRANTIYFASVRAYNTAGTGPSSPPVNVTTKKSPPSQPPANIAWKLSNSKLCLNWEHVKTMENESEVLGYKILYRQNRQSKTHVLETNNTSAELLVPFEEDYLIEIRTVSDGGDGSSSEEIRIPKMSSLSS
binding result [3]: no binding

B3: NB-3-His (ligand, rat)
chain: ESRFTRPIFIQEPQDVIFPLDLSRSEIILSCTASGYPSPHYRWKQNGTDIDFSMTYHYRLDGGSLAISSPRTDQDIGIYQCLATNPVGTILSRKAKLQFAYIEDFETKSRSTVSVREGQGVVLLCGPPPHFGELSYDWTFNDNPLYVQEDKRRFVSQNTGNLYIAKVEPSDVGNYTCFVTNKEAHRSVQGPPTPLVQRTDGVMGEYEPKIEVRFPETIQAAKDSSVKLECFALGNPVPDISWRRLDGSPMPGKVKYSNSQATLEIPKFQQEDEGFYECVAGNLRGRNLAKGQLIFYAPPEWEQKIQNTYLSIYDSLFWECKASGNPNPSYTWLKNGERLNTEERIQTENGTLIITMLNVSDSGIYQCAAENKYQTIYANAELRVLASAPDFSKNPIKKISVVQVGGDISIECKPNAFPKASISWKRGTENLKQSKRVFFLEDGSLKICNVTRSDAGSYTCVATNQFGNGKSSGSLIVKERTVITVPPSKMDVTVGESIVLPCQVSHDPTMEVLFVWYFNGDVIDLKKGVAHFERIGGESVGDLMIRNIQLGHSGKYLCTVQTTLERLSAVADIIVRGPPGPPEDVKVEHISSTTSQLSWRPGPDNNSPIQIFTIQTRTPFSVGWQAVATVPEILNGQTYNATVIGLSPWVEYEFRVVAGNNIGIGEPSKPSELLRTKASIPNVAPVNINGGGGSRSELVITWEPIPEELQNGEGFGYIIMFRPVGSTTWMKEKVALVESSKFIYRNESIMPLSPFEVKVGVYNNEGEGSLSTVSIVYSGEDEPRLAPRGTSVQSFSASDMEVSWNAIAWNRNTGRVLGYEVLYWTDNSKESMIGKIRVSGNVTTKNITGLRANTIYFASVRAYNTAGTGPSSPPVNVTTKKSPPSQPPANIAWKLSNSKLCLNWEHVKTMENESEVLGYKILYRQNRQSKTHVLETNNTSAELLVPFEEDYLIEIRTVSDGGDGSSSEEIRIPKMSSLSSHHHHHH
MAG mRNA, real-time RT-PCR, primary oligodendrocytes on protein substrate against BSA [1]: ~8 fold

B4: GST-Nogo-66 (other, UniProt Q9NQC3 1055-1120, looked up)
chain: RIYKGVIQAIQKSDEGHPFRAYLESEVAISEELVQKYSNSALGHVNCTIKELRRLFLVDDLVDSLK
notes: also called Nogo-66-GST; recombinant GST-Nogo-66 protein; not shown: glutathione S-transferase (GST) encoded by vector pGEX-KG
binding result [4]: no binding
